From patent publication US20230146533A1, “KERATIN BD-10, PREPARATION METHOD THEREFOR AND PHARMACEUTICAL COMPOSITION AND USE THEREOF” (INSTITUTE OF MATERIA MEDICA, CHINESE ACADEMY OF MEDICAL …, priority 2019, published 2023)

Key:
[1] = system: lipopolysaccharide (LPS) induced fever in SD rats; assay: Lipopolysaccharide (LPS) induced fever model in SD rats; assay type: in vivo; details: for Body temperature 2 hours after modeling / Body temperature 4 hours after modeling / Body temperature 6 hours after modeling / Body temperature 8 hours after modeling: LPS 20 μg/kg i.p., SD rats
Method: Animals: 230-260 grams of male SD rats; Drugs: lipopolysaccharide (LPS, SIGMA L-2880), aspirin (SIGMA A2093), protein BD-10; Instruments: electronic balance (SARTORIUS BP121S type), electronic clinical thermometer (CITIZEN CT-513W type).
Method: the method of intraperitoneal injection of Lipopolysaccharide to replicate rat fever model.
Preparation of experimental animals: After the experimental animals adapt to the experimental environment (temperature 22° C.±2° C., relative humidity 50%±2%) for 1 day. Pre-adaptation to measure rectal temperature at 8:00 and 15:00, rats were fasted and water was taken freely 12 h before experiment, and let the animal to empty its feces before measuring the rectal temperature. Apply petroleum jelly to the electronic thermometer probe before each temperature measurement. Insert the rat rectum 2 cm (can be marked at 2 cm to ensure that the depth of each insertion is consistent), and record the body temperature after the reading is stable.
Intraperitoneal injection of lipopolysaccharide to replicate rat fever model: The body temperature of the rats was measured before modeling. Qualified rats with a body temperature of 36.2-37.3° C. were selected and randomly divided into groups with 8 rats in each group. After oral administration of aspirin and different doses of protein BD-10, lipopolysaccharide (20 μg/kg, 2 ml/kg) was injected intraperitoneally immediately, and the normal control group was injected intraperitoneally with an equal volume of normal saline. The body temperatures of the rats were monitored after 2 hours for a total of 8 hours.
According to the body temperature measured at each time point on the day of the experiment, calculate the mean, standard deviation and standard error of the body temperature of each group of rats. The data of each group was compared with TTEST, and P<0.05 was considered as a significant difference.

[2] = system: PTZ-induced epilepsy in mice; assay: Pentylenetetrazole (PTZ) induced epilepsy in mice; assay type: in vivo, ICR mice; details: for Grade IV seizure rate / mortality rate / Grade III seizure incubation period / Grade IV seizure incubation period / Cases of deaths / Cases of Grade IV: PTZ 65 mg/kg i.p.; for Grade IV seizure rate / mortality rate: 10 mice; for Grade III seizure incubation period / Grade IV seizure incubation period: mean ± SEM; for Grade IV seizure incubation period: mice not reaching Grade IV recorded as maximum 900 seconds; for Cases of deaths / Cases of Grade IV: of 10 mice; for Cases of Grade IV: 15 minutes observation
Method: Medicines: Pentylenetetrazol (PTZ), Retigabine, Protein BD-10.
Experiment grouping: • Model group; • Retigabine 60 mg/kg group; • Protein BD-10, 50 mg/kg group, 200 mg/kg group;
The drug was administered once in the afternoon the day before modeling, On the day of modeling, PTZ-65 mg/kg (modeling agent) was injected intraperitoneal 1 hour after the test drug was administered intragastrically, and the positive drug can be administered once half an hour before modeling. Continue to observe for 15 minutes after injection of PTZ.
Observation index: (1)Seizure situation: the time of seizures from Grade III to Grade VI; (2)Death situation
Seizure grade: Refer to Racine grading standard: Grade 0: No response; Grade I: manifested as twitching of facial muscles or the corners of the mouth; Grade II: can nod; Grade III: twitching of one limb; Grade IV: rigidity or body twitching; Grade V: generalized epilepsy (generalized tonic seizures).
Count the cases of seizures and deaths in each group of mice in the experiment; Grade III and IV incubation period. The incubation period of mice that have not attacked to Grade IV is recorded as the maximum of 900 seconds. Chi-square test was used for statistics of the number of cases. Calculate the mean and standard error of the incubation period. Use TTEST to compare the model group with other groups, and P<0.05 is considered as a significant difference.

[3] = system: mice cough induced by ammonia water; assay: Antitussive test, cough induced by ammonia water in mice; assay type: in vivo, ICR mice; details: for Incubation period (cough) / Number of coughs: 10% ammonia water atomized 10 seconds one hour later, X ± SEM; for Number of coughs: coughs within 2 minutes
Method: Animals: male ICR mice; Drugs and reagents: dextromethorphan hydrobromide, ammonia water, 0.2% CMC-Na, protein BD-10; Apparatus: Compressed nebulizer (403T type), balance (XS105DU type). Experiment grouping: • Solvent control group; • Dextromethorphan 15 mg/kg group; • Protein BD-10, 20 mg/kg group, 50 mg/kg group.
Dextromethorphan and different doses of protein BD-10 (administration volume 10 ml/kg) were given orally in groups, and the solvent control group was given the same volume of distilled water. One hour later, mice were put into a sealed box and atomized 10% ammonia water for 10 seconds, and then observed and recorded the incubation period of cough in mice and the number of coughs in 2 minutes.
Record the time point of oral administration, the time point of atomization experiment, the incubation period of mice cough and the number of coughs within 2 minutes, respectively. The incubation period of cough refers to the number of seconds from the start of the atomization of ammonia to the occurrence of cough. The performance of coughing in mice is based on contraction of their abdominal muscles (breast contraction) and opening their mouths at the same time. Calculate the mean and standard error of each group of data, and use TTEST to compare the model group with other groups, and P<0.05 is considered as a significant difference.

B1: BD-10: recombinant keratin with amino acid sequence SEQ ID NO:1, expressed in E. coli inclusion bodies, band around 55 kD (protein, listed as Bos taurus)
chain: MSCRSYRISPGYSVTRTFSSCSAVAPKTGSRCCITAAPYRGVSCYRGLTGFGSRSVSALGSCGPRIAVGGFRAGSCNRSFGYRSGGVGGLSPPCITTVSVNESLLTPLNLEIDPNAQCVKHEEKEQIKNLNSRFAAFIDKVRFLEQQNKLLETKWQFYQNQRCCESNLEPLFNGYIETLRREAEHVEADGGRLASELNHVQEVLEGYKKKYEEEVALRATAENEFVVLKKDVDCAYLRKSDLEANVEALVEESNFLKRLYDEEIQILNAHISDTSVIVKMDNSRDLNMDCVVAEIKAQYDDIASRSRAEAESWYRNKCEEMKATVIRHGETLRRTKEEINELNRIIQRLTAEIENAKCQRTKLEAAVAEAEQQGEAALNDARCKLAGLEEALQKAKQDMACLLKEYQEVMNSKLGLDIEIATYRRLLEGEEQRLCEGVGSVNVCVSSSRGGVTCGGLTYSTTAGRQIASGPVATGGSITVLAPDSCVPCQPRASSFSCGSSRSVRFA
Effect on body temperature of model rats (in words) ([1]; BD-10 10 mg/kg dose group, 2 hours after modeling, vs model group P<0.05): can significantly reduce the body temperature
Body temperature 2 hours after modeling ([1]; BD-10 10 mg/kg oral): 37.3 ± 0.1 °C
Body temperature 4 hours after modeling ([1]; BD-10 10 mg/kg oral): 37.8 ± 0.1 °C
Body temperature 6 hours after modeling ([1]; BD-10 10 mg/kg oral): 37.8 ± 0.1 °C
Body temperature 8 hours after modeling ([1]; BD-10 10 mg/kg oral): 37.6 ± 0.1 °C
Body temperature 2 hours after modeling ([1]; BD-10 50 mg/kg oral): 37.3 ± 0.2 °C
Body temperature 4 hours after modeling ([1]; BD-10 50 mg/kg oral): 37.7 ± 0.2 °C
Body temperature 6 hours after modeling ([1]; BD-10 50 mg/kg oral): 37.9 ± 0.2 °C
Body temperature 8 hours after modeling ([1]; BD-10 50 mg/kg oral): 37.6 ± 0.1 °C
Effect on body temperature rise (in words, summary) ([1]; BD-10, dose not stated, 2 hours after modeling): has a significant effect of reducing body temperature rise
Grade IV seizure rate ([2]; BD-10 50 mg/kg intragastric): 80%
mortality rate ([2]; BD-10 50 mg/kg intragastric): 0%
Grade III seizure incubation period ([2]; BD-10 50 mg/kg intragastric): 63 ± 2 s
Grade IV seizure incubation period ([2]; BD-10 50 mg/kg intragastric): 296 ± 106 s
Cases of deaths ([2]; BD-10 50 mg/kg intragastric): 0
Cases of Grade IV ([2]; BD-10 50 mg/kg intragastric): 8
Grade IV seizure rate ([2]; BD-10 200 mg/kg intragastric): 70%
mortality rate ([2]; BD-10 200 mg/kg intragastric): 0%
Grade III seizure incubation period ([2]; BD-10 200 mg/kg intragastric): 81 ± 9 s
Grade IV seizure incubation period ([2]; BD-10 200 mg/kg intragastric): 359 ± 120 s
Cases of deaths ([2]; BD-10 200 mg/kg intragastric): 0
Cases of Grade IV ([2]; BD-10 200 mg/kg intragastric): 7
Effect on incubation period of Grade IV epilepsy (in words) ([2]; BD-10, PTZ model, no statistical difference compared with the model group): has a tendency to extend the incubation period
Incubation period (cough) ([3]; BD-10 20 mg/kg oral): 31.4 ± 2.6 s
Number of coughs ([3]; BD-10 20 mg/kg oral): 55.3 ± 4.2
Incubation period (cough) ([3]; BD-10 50 mg/kg oral): 29.4 ± 3.0 s
Number of coughs ([3]; BD-10 50 mg/kg oral): 59.8 ± 3.9
Effect on incubation period and number of coughs (in words) ([3]; BD-10, dose not stated, not statistically significant): has a tendency to prolong the incubation period and reduce the number of coughs
